According to PMC2597655:

Assays:
[1] = biological target: DNA polymerase beta I260Q (UniProt P06766 1-335, I260Q); assay: EMSA
DNA polymerase beta WT = DNA polymerase beta WT (UniProt P06766 1-335); assay: EMSA

B1: CII5T A:A (5 nt gap, mispaired primer terminus) (dsDNA)
DNA 1: TTGCGACTTATCAACGCCCACAA
DNA 2: GCTGTCTTCTCAGTTTC
DNA 3: GAAACTGAGAAGACAGCTACTGATGTGGGCGTTGATAAGTCGCAA
modifications: 5'-phosphate on downstream oligo and template
Q: How did the Kd [1] turn out when B1 was run?
A: The Kd was 2 nM.

Q: And the Kd (DNA polymerase beta WT)?
A: Its Kd is 6 nM.
